Reference: patent US20060270596A1 (CENTRE NATIONAL DE LA RECHERCHE SCIENTIFIQUE CNRS, published 2006)
Residue numbers refer to the chain shown, from its start. Names may count otherwise.

T1: THAP1ΔQRCRR mutant (deletion of residues 168-172) (human, UniProt Q9NVV9 1-213)
T1 sequence: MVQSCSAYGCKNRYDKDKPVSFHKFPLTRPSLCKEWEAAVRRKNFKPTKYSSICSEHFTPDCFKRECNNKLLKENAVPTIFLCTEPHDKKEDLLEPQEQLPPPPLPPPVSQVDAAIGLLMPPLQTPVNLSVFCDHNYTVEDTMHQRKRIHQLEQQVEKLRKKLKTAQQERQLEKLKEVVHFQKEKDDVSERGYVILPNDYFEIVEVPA

T2: THAP1-N2 deletion mutant (amino acids 1-166) (human, UniProt Q9NVV9 1-166)
T2 construct: Gal4 fusion, in vitro translation product or GFP fusion according to assay
T2 sequence: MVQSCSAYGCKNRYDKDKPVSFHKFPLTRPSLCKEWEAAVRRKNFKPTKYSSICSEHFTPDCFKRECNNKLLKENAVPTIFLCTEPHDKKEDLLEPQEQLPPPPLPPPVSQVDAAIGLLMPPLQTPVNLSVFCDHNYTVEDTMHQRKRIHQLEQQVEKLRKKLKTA

T3: THAP1-C1 deletion mutant (amino acids 90-213) (human, UniProt Q9NVV9 90-213)
T3 construct: Gal4 fusion, in vitro translation product or GFP fusion according to assay; also called THAP1-CL; THAP1ΔTHAP
T3 sequence: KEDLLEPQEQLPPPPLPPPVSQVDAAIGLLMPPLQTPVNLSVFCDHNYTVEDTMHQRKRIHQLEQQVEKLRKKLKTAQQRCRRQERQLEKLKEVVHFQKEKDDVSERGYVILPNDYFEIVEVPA

T4: THAP1-N3 deletion mutant (amino acids 1-192) (human, UniProt Q9NVV9 1-192)
T4 construct: Gal4 fusion, in vitro translation product or GFP fusion according to assay
T4 sequence: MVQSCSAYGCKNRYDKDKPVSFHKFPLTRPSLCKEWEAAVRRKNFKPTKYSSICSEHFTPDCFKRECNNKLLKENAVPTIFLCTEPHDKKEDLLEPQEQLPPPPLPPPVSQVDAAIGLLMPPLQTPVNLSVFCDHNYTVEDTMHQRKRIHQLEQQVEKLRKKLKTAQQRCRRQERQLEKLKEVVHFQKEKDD

T5: THAP1-N1 deletion mutant (amino acids 1-90) (human, UniProt Q9NVV9 1-90)
T5 construct: Gal4 fusion, in vitro translation product or GFP fusion according to assay; also called zinc finger domain of THAP1
T5 sequence: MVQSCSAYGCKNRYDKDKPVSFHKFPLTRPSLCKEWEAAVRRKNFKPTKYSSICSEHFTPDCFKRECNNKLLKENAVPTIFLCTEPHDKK

T6: Par4 deletion mutant lacking the leucine zipper/death domain (Par4Δ, amino acids 1-276) (human, UniProt Q96IZ0 1-274)
T6 construct: Gal4 fusion in two-hybrid; also called Par4A; PAR4A
T6 sequence: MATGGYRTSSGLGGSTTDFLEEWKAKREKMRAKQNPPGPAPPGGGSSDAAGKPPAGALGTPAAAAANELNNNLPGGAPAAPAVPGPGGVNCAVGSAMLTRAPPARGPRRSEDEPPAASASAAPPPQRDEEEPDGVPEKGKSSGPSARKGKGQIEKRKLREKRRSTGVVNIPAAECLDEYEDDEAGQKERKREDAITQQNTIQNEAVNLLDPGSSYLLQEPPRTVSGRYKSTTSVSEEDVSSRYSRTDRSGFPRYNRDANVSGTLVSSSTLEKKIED

T7: human prostate apoptosis response-4 (PAR4), full length (human, UniProt Q96IZ0 1-340, limits assumed)
T7 construct: Gal4-BD or Gal4-AD fusion in two-hybrid; also called Par4 wild type
T7 chain: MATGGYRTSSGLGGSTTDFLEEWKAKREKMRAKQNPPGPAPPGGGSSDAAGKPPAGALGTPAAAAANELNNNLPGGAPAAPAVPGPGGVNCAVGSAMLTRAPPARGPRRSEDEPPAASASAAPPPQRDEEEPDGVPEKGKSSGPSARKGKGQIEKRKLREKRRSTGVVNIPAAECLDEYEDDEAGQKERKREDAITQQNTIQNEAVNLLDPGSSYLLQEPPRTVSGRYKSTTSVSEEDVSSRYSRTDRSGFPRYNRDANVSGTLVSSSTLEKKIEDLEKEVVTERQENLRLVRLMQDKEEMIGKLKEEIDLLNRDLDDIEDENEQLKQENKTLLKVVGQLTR

T8: Par4 leucine zipper/death domain (Par4DD, amino acids 250-342) (human, UniProt Q96IZ0 248-340)
T8 construct: Gal4 fusion in two-hybrid; also called myc-Par4DD
T8 chain: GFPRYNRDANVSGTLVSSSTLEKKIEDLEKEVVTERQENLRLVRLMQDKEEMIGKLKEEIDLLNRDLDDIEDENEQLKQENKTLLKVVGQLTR

B1: human chemokine SLC/CCL21, mature form (amino acids 24-134) (ligand)
chain: SDGGAQDCCLKYSQRKIPAKVVRSYRKQEPSLGCSIPAILFLPRKRSQAELCADPKELWVQQLMQHLDKTPSPQKPAQGCRKDRGASKTGKKGKGSKGCKRTERSQTPKGP
notes: GenBank NP-002980; Used as Gal4 fusion in two-hybrid and as 35S-labelled in vitro translation product in pull-downs; also called SLC/6Ckine; SLC/CCL21 wild type
B2: GST-Par4DD fusion protein (Par4 amino acids 250-342) (other)
chain: T8 chain
notes: Expressed in E. coli, immobilized on glutathione sepharose; not shown: glutathione S-transferase encoded by vector pGEX-2T (Amersham Pharmacia Biotech)
B3: human THAP1 (THanatos-Associated-Protein-1), full length (other)
chain: MVQSCSAYGCKNRYDKDKPVSFHKFPLTRPSLCKEWEAAVRRKNFKPTKYSSICSEHFTPDCFKRECNNKLLKENAVPTIFLCTEPHDKKEDLLEPQEQLPPPPLPPPVSQVDAAIGLLMPPLQTPVNLSVFCDHNYTVEDTMHQRKRIHQLEQQVEKLRKKLKTAQQRCRRQERQLEKLKEVVHFQKEKDDVSERGYVILPNDYFEIVEVPA
notes: these tags are not written into the chain; also called hTHAP1; THAP1 wild type
B4: THAP1 RR/AA mutant (R171A, R172A) (other)
chain: B3 chain with R171A, R172A
notes: Gal4-BD fusion, in vitro translation product or GFP fusion according to assay; also called THAP RR/AA

Legend:
[1] = target: T1, THAP1ΔQRCRR mutant (deletion of …); test: yeast two-hybrid, SLC/CCL21 bait
[2] = target: B3; test: yeast two-hybrid, chemokine bait and THAP1 prey
[3] = target: T2, THAP1-N2 deletion mutant (amino acids …); test: yeast two-hybrid
[4] = target: T3, THAP1-C1 deletion mutant (amino acids …); test: yeast two-hybrid
[5] = target: T4, THAP1-N3 deletion mutant (amino acids …); test: yeast two-hybrid
[6] = target: T9, GST (glutathione S-transferase) control protein (UniProt P08515 1-218 = GST); test: GST pull-down, 35S-labelled in vitro translated SLC/CCL21
T9 construct: Negative control in GST pull-down assays; also called GST beads; GST alone
T9 sequence (P08515 whole entry): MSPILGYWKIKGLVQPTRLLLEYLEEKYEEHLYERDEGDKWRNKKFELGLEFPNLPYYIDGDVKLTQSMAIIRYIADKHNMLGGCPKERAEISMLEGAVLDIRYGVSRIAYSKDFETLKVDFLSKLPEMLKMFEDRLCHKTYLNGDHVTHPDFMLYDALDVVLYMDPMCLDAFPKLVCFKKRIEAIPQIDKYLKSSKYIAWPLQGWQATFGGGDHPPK
Protocol: To confirm the interaction observed in yeast two-hybrid system, we performed in vitro GST pull down assays. THAP1, expressed as a GST-tagged fusion protein and immobilized on glutathione sepharose, was incubated with radiolabeled in vitro translated SLC/CCL21.

[7] = target: T1, THAP1ΔQRCRR mutant (deletion of …); test: GST pull-down
[8] = target: T2, THAP1-N2 deletion mutant (amino acids …); test: GST pull-down: in vitro translated 35S-labelled protein on GST-Par4DD immobilised on glutathione sepharose, SDS-PAGE, fluorography
Protocol: (§1) THAP1 mutants were also tested in the in vitro THAP1/Par4 interaction assay. In vitro-translated THAP1 mutants were generated with the TNT-coupled reticulocyte lysate system (Promega, Madison, Wis., USA) using pGBKT7-THAP1-C1, -C2, -C3, -N1, -N2 or -N3 vector as template. 25 μl of each ³⁵S-labelled THAP1 mutant was incubated with immobilized GST or GST-Par4 protein overnight at 4° C., in the following binding buffer: 10 mM NaPO4 pH 8.0, 140 mM NaCl, 3 mM MgCl2, 1 mM dithiothreitol (DTT), 0.05% NP40, and 0.2 mM phenylmethyl sulphonyl fluoride (PMSF), 1 mM Na Vanadate, 50 mM β Glycerophosphate, 25 μg/ml chimotrypsine, 5 μg/ml aprotinin, 10 μg/ml Leupeptin. Beads were then washed 5 times in 1 ml binding buffer. Bound proteins were eluted with 2× Laemmli SDS-PAGE sample buffer, fractionated by 10% SDS-PAGE and visualized by fluorography using Amplify (Amersham Pharmacia Biotech). As expected, THAP1-C1, -C2, -C3, -and -N3 interacted with GST/Par4DD (FIG. 4B).

[9] = target: T5, THAP1-N1 deletion mutant (amino acids …); test: as above
Protocol: as §1

[10] = target: T6, Par4 deletion mutant lacking the …; test: yeast two-hybrid
[11] = target: T9, GST (glutathione S-transferase) control …; test: GST pull-down, negative control: in vitro translated 35S-labelled protein on GST alone immobilised on glutathione sepharose, SDS-PAGE, fluorography
Protocol: To confirm the interaction observed in yeast, we performed in vitro GST pull down assays. Par4DD, expressed as a GST-tagged fusion protein and immobilized on glutathione sepharose, was incubated with radiolabeled in vitro translated THAP1. To generate the GST-Par4DD expression vector, Par4DD (amino acids 250-342) was amplified by PCR with primers Par4.10 (5′-[…]-3′) (SEQ ID NO: 194) and Par4.5, and cloned in frame downstream of the Glutathion S-Transferase ORF, into the BamHI site of the pGEX-2T prokaryotic expression vector (Amersham Pharmacia Biotech, Saclay, France). GST-Par4DD (amino acids 250-342) fusion protein encoded by plasmid pGEX-2T-Par4DD and control GST protein encoded by plasmid pGEX-2T, were then expressed in E. coli DH5α and purified by affinity chromatography with glutathione sepharose according to supplier's instructions (Amersham Pharmacia Biotech). The yield of proteins used in GST pull-down assays was determined by SDS-Polyarylamide Gel Electrophoresis (PAGE) and Coomassie blue staining analysis. In vitro-translated THAP1 was generated with the TNT-coupled reticulocyte lysate system (Promega, Madison, Wis., USA) using pGBKT7-THAP1 vector as template. […]

[12] = target: the molecule itself; test: yeast two-hybrid, THAP1 bait
[13] = target: T7, human prostate apoptosis response-4 …; test: yeast two-hybrid, Par4 wt bait
Protocol: for mutant THAP1ΔQRCRR. The resulting PCR fragments were digested with EcoRI and BamHI, and cloned in frame downstream of the Gal4 Binding Domain (Gal4-BD) in pGBKT7 two-hybrid vector (Clontech) to generate pGBKT7-THAP1-RR/AA and -Δ(QRCRR), or downstream of the Enhanced Green Fluorescent Protein (EGFP)ORF in pEGFP.C2 vector (Clontech) to generate pEGFP.C2-THAP1-RR/AA and -Δ(QRCRR). THAP1RR/AA and THAP1ΔQRCRR THAP1 mutants were then tested in the three THAP1/Par4 interaction assays (two-hybrid assay, in vitro THAP1/Par4 interaction assay, in vivo THAP1/Par4 interaction assay) as described above for the THAP1-C1, -C2, -C3, -N1, -N2 or -N3 mutants.

[14] = target: B2; test: GST pull-down
[15] = target: T8, Par4 leucine zipper/death domain …; test: yeast two-hybrid and in vivo interaction assay
[16] = target: B1; test: yeast two-hybrid, SLC/CCL21 bait
[17] = target: B3; test: yeast two-hybrid, THAP1 bait

Binder: B1
binding result [1]: no binding
binding result [2]: binds
binding result [3]: no binding
binding result [4]: binds
binding result [5]: no binding
binding result [6]: no binding

Binder: B2
binding result [7]: no binding
binding result [8]: no binding
binding result [9]: no binding

Binder: B3
binding result [10]: no binding
binding result [11]: no binding
binding result [12]: binds

Binder: B4
binding result [13]: no binding
binding result [14]: no binding
binding result [15]: no binding
binding result [16]: binds
binding result [17]: binds
